In series [1] the target is T1, DasR (SCO5231) (Streptomyces coelicolor, UniProt Q9K492 SEQ:1-254).
T1 sequence: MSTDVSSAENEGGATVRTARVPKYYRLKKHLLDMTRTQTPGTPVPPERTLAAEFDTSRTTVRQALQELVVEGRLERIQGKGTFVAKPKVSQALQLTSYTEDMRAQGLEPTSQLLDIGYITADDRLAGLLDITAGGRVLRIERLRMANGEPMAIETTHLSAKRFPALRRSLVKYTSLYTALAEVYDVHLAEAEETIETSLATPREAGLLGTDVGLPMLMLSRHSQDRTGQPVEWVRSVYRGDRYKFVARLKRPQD
As to the kind of experiment: EMSA; negative control. The settings on record: tags: His6; chain copies: 2; label: fluorescent. As for the experimental part:
(§1) Electromobility gel shift assay (EMSA). EMSAs were performed with fluorescent probes (10 nM) with an ALF express sequencer (Filee et al., 2001). Purified DasR (3 μM) and 1000-fold excess of non-specific DNA were used in the reaction mixture. Predicted cis-acting elements were taken from the promoter regions of actII-ORF4 (SCO5085; 5′-[…]-3′ (SEQ ID NO:530)), and redZ (SCO5881; 5′-[…]-3′ (SEQ ID NO:531)). Known cis-acting elements upstream of crr (SCO1390; […]-3′ (SEQ ID NO:532)), and crp (SCO3571; 5′-[…]-3′ (SEQ ID NO:533)) were used as positive and negative controls, respectively. The 16 nt dre sites are underlined.
(In general: In EMSA bound probe runs differently from free probe, usually more slowly.)

The target in series [2] is T1, DasR (SCO5231). The series can be described thus: EMSA; no free probe left; 3 uM DasR, 10 nM probe, 1000-fold non-specific DNA; complex prevented by glucosamine-6-P (data not shown). The settings on record: tags: His6; chain copies: 2; label: fluorescent. How it is done: as §1

The record followed here is patent US20110143394, “Methods and Means for Metabolic Engineering and Improved Product Formation by Micro-Organisms” (Universiteit Leiden, published 2011).

B1: crp cis-element oligo (dsDNA)
DNA 1: TGCGGCATCCTTGTGACAGATCACACTGTTTGGACT
DNA 2: AGTCCAAACAGTGTGATCTGTCACAAGGATGCCGCA
Regarding B1, the binding result with DasR (SCO5231) [1] was “no binding”.

B2: crr dre oligo (dsDNA)
DNA 1: CCGTGAGGAGTGTGGTCTAGACCTCTAATCGGAACA
DNA 2: TGTTCCGATTAGAGGTCTAGACCACACTCCTCACGG
Take B2: the binding result with DasR (SCO5231) [2] was “binds”.
